The experiment concerns the target T1, recombinant human IGF-I receptor His tag (305-GR-050, R&D SYSTEMS) (human, UniProt P08069 31-932, limits assumed).
T1 construct: Bought protein, captured on an anti-His antibody chip; also called IGF-IR-His; not shown: His tag
Kind of experiment: SPR, Biacore T200, 36 °C, IGF-IR-His captured by anti-His antibody, 1:1 model. How it is done: An anti-His monoclonal antibody was immobilized to a sensor chip CM3 (GE) with an Amine Coupling Kit (BR-1000-50, GE) and a His Capture Kit (28-9950-56, GE). The immobilization conditions were NHS/EDC: 7 minutes, 50 μg/mL anti-His monoclonal antibody: 3 minutes, ethanolamine: 7 minutes, and target: ≥3000 RU. As analytes, the agent was used at predetermined concentrations.
The sensor chip CM3 immobilized with the anti-His monoclonal antibody was set to Biacore T200, the reaction temperature was set to 36° C., and a running buffer (HBS-EP+, BR-1006-69, GE) was fed at a flow rate 30 μL/min. The amount of the binding ligand was set to about 100 RU, and IGF-IR-His (0.5 to 2×10⁻⁸ mol/L) was added to the sensor chip to be captured by the anti-His monoclonal antibody. Ctrl IgG2a (10 nmol/L) was allowed to react for 1 minute, and HBS-EP+ was fed at a flow rate of 30 μL/min for at least 10 minutes. The analyte and HBS-EP+ were added to flow cells (1 and 2) and flow cells (3 and 4), respectively.
The reaction conditions were set to a binding time of 600 seconds and a dissociation time of 600 seconds. After completion of the reaction, washing was performed with regeneration buffer 1 (0.2% SDS), regeneration buffer 2 (100 mmol/L Tris-HCl (pH 8.5), 1 mol/L NaCl, 15 mmol/L MgCl₂), and regeneration buffer 3 (10 mmol/L glycine-HCl (pH 1.5)) for 1 minute each at a flow rate of 30 μL/min.
On the technique in general: Surface plasmon resonance follows binding to a sensor surface in real time, without labels.

B1: IGF11-16 (antibody, mouse IgG1, kappa, V domains shown)
VH: QIQLQQPGAELVKPGASVKLSCKAPGYTFTSYWMHWVKQRPGQGLEWIGETNPSNSVTNYNEKFKSKATLTVDKSSSTAYMQLSSLTSEDSAVYYCTIGRGRGFAYWGQGTLVTVSA
VL: DIQMNQSPSSLSASLGDTITITCRASQNINFWLSWCQQKPGNIPKLLIYKASNLHTGVPSRFSGSGSGTDFTLTISSLQPEDIATYYCLQGQSYPYTFGGGTKLEIKR
notes: no cleavage site is stated; also called IGF-I receptor agonist antibody; IGF11-16 antibody
Consider B1, for which the Kd is below 0.01 nM, the koff is below 1e-05 s⁻¹ and the kon was 1.05e+06 M⁻¹ s⁻¹.

By Kd is commonly meant a measure of binding affinity in units of concentration. What is called koff is the first-order rate constant of dissociation. One may read the kon as the rate constant with which the complex forms.
